Earlier results, collected in PMC5338744.

Target: VEGFR2 (KDR) (Homo sapiens) (UniProt P35968)
Sequence of UniProt P35968 (P35968 20-1356): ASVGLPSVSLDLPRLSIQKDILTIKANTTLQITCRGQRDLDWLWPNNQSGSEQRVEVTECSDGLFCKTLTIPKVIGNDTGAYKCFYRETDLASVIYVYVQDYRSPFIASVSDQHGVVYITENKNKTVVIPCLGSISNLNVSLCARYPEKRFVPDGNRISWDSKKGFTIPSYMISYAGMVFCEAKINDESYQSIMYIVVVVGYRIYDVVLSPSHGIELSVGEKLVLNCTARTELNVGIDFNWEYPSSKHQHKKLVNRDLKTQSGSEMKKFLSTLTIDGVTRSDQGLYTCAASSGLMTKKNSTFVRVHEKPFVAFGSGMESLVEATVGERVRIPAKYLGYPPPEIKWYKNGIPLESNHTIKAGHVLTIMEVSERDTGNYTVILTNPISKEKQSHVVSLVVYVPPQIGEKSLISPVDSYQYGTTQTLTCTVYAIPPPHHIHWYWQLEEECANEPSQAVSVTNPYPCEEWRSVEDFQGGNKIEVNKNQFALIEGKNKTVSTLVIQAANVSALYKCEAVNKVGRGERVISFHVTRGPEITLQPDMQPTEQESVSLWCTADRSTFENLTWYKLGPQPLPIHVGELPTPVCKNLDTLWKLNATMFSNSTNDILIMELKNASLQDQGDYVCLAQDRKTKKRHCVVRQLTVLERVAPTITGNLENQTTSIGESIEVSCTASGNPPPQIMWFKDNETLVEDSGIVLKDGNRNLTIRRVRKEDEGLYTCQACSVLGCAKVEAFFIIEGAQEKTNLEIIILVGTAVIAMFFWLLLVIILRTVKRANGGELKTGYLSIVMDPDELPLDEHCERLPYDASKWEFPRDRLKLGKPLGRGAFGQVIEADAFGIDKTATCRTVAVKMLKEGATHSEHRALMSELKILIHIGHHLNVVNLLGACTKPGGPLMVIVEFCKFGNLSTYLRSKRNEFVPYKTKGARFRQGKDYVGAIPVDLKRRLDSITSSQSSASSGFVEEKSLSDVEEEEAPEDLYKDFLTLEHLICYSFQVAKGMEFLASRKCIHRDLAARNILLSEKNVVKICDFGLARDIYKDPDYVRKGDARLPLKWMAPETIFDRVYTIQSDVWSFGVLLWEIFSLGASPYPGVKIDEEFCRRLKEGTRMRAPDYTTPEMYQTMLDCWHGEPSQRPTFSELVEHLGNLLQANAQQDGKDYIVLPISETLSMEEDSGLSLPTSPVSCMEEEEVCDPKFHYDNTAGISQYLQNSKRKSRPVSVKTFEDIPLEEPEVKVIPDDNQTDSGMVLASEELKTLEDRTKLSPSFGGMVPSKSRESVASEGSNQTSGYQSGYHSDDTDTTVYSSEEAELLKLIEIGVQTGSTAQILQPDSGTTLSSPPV

Kd: 0.76 nM
Substance: VEGF (from UniProt P15692)
